Assay results as given in the supplement of paper PMC11780869.

Tested on: Bacillus subtilis
Experiment: cleaved RNA product abundance (RNA/gDNA barcode ratio) relative to median wild-type variant (ratio to wild type); higher = more accumulation of the downstream cleavage product
Outline: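 B. subtilis strains with chromosomally integrated reporter mRNAs (truncated aprE or tetM) holding barcoded, mutagenized RNase Y cleavage-site windows grew in LB at 37°C from OD600 0.0003 to 0.3. Cleaved product abundance is each construct's RNA:gDNA barcode ratio, scaled to the median construct with the unmutated site. It came from sequencing barcodes of gel-selected, reverse-transcribed cleaved RNA and of genomic DNA.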

[1] = experiment (reporter, strain, medium): exp 2b: truncated aprE reporter, strain BJT200, cleavage site: cggR-gapA (positions -7 to +36 mutated)
[2] = experiment (reporter, strain, medium): exp 8a: truncated aprE reporter, strain BJT201 with 2% xylose (RNase J1 expressed), cleavage site: glnRA (positions -5 to +31 mutated)
[3] = experiment (reporter, strain, medium): exp 4a: truncated aprE reporter, strain BJT201 with 2% xylose (RNase J1 expressed), cleavage site: cggR-gapA (positions -7 to +36 mutated)

## ACAGACGAAGGAGCCGCAAAGAAATTATTAAGGGATGAATACTCCCTCAATATAAATATCTCTCACTTATTTAAA
[1]
  cleaved RNA product abundance: 0.416

## CGACATGTCCCGCTTCTTTCATTAATCCGTGAGCAACTGTTTTGCTATATAAATTTACCTTTTAAGAGGAGGAAT
[2]
  cleaved RNA product abundance: 0.357

## ACAGACGAAGGAGCCGCAAATAAGTTATTAAGGGATGAATAATCCCTCAATATAATTATCTCTCACTTATTTAAA
[1]
  cleaved RNA product abundance: 0.515
[3]
  cleaved RNA product abundance: 0.477

## ACAGACGAAGGAGCCGCAAAAAAGTTATTAATGGCTGAATAATCCCTCAATATAAATATCTCTCACTTATTTAAA
[3]
  cleaved RNA product abundance: 0.0935

## ACAGACGAAGGAGCCGCAAAGAAGTTGTTAAAGGATGAATAATCCCTCAATATAAATATCTCTCACTTATTTAAA
[3]
  cleaved RNA product abundance: 0.0874

## ACAGACGAAGGAGCCGCAAAGAAGTTATTAAGGAATGAATAATCCCTGAATATAAATATCTCTCACTTATTTAAA
[3]
  cleaved RNA product abundance: 0.0984

## CGACATGTCCCGCTTCTTTCATTAATCCGTTAGAAACTGTTTTGCTAGATACATTTACCTTTTAAGAGGAGGAAT
[2]
  cleaved RNA product abundance: 0.255

## ACAGACGAAGGAGCCGCAAAGAATTTATTAAGGGATGAATTATCCCTCAATATAAATATCTCTCACTTATTTAAA
[1]
  cleaved RNA product abundance: 0.531
[3]
  cleaved RNA product abundance: 0.268

## CGACATGTCCCGCTTCTTTCATTAATCCAATAGCAACTGTTTTGCTATATACATTTACCTTTTAAGAGGAGGAAT
[2]
  cleaved RNA product abundance: 0.553

## CGACATGTCCCGCTTCTTTCATTAATCCGTTATCAACTGTTTTGCCATATACATTTACCTTTTAAGAGGAGGAAT
[2]
  cleaved RNA product abundance: 0.145

## ACAGACGAAGGAGCCGCAAATAAGATATTAAGGGATGAATAATCCCTCAATATAAATATCTCTCACTTATTTAAA
[3]
  cleaved RNA product abundance: 1.08
Experiment (reporter, strain, medium): exp 6: tetM reporter, strain 168, cleavage site: cggR-gapA (positions -7 to +36 mutated)
  cleaved RNA product abundance: 0.738

## ACAGACGAAGGAGCCGCAAAGAAGTTATTATGGGATGAATAATCCATCAATATAAATATCTCTCACTTATTTAAA
[3]
  cleaved RNA product abundance: 0.236

## CGACATGTCCCGCTTCTTTCATTAATCCGTTAGTAACTGTTTTGCTATATACATTTACATTTTAAGAGGAGGAAT
[2]
  cleaved RNA product abundance: 0.433

## CGACATGTCCCGCTTCTTTCATTAATCCGTTAGGAACTGTTTTGCTATACACATTTACCTTTTAAGAGGAGGAAT
[2]
  cleaved RNA product abundance: 0.245

## ACAGACGAAGGAGCCGCAAAGAAGTTATTAAGGGATGAATAATACCTCAATATATATATCTCTCACTTATTTAAA
[3]
  cleaved RNA product abundance: 0.123

## ACAGACGAAGGAGCCGCAAAGAAGTTATTAAGGGATGAATACTACCTCAATATAAATATCTCTCACTTATTTAAA
[1]
  cleaved RNA product abundance: 0.124
[3]
  cleaved RNA product abundance: 0.168

## ACAGACGAAGGAGCCGCAAAGAAGTTATTAAAGGATGAATAATCCCTAAATATAAATATCTCTCACTTATTTAAA
[1]
  cleaved RNA product abundance: 0.232
[3]
  cleaved RNA product abundance: 0.342

## ACAGACGAAGGAGCCGCAAAGAAGTTATTAAAGGATGAATAATCCCTCAATGTAAATATCTCTCACTTATTTAAA
[1]
  cleaved RNA product abundance: 0.0901
[3]
  cleaved RNA product abundance: 0.0731

## ACAGACGAAGGAGCCGCAAAGAAGTTATTAACGGATGAATAAACCCTCAATATAAATATCTCTCACTTATTTAAA
[1]
  cleaved RNA product abundance: 0.0962
[3]
  cleaved RNA product abundance: 0.12

## CGACATGTCCCGCTTCTTTCATTAATTCGTTAGCAACTGCTTTGCTATATACATTTACCTTTTAAGAGGAGGAAT
[2]
  cleaved RNA product abundance: 0.6

## CGACATGTCCCGCTTCTTTCATTAATCCGTTAGCAACTGTTTTGCTAAAGACATTTACCTTTTAAGAGGAGGAAT
[2]
  cleaved RNA product abundance: 0.0969

## ACAGACGAAGGAGCCGCAAAGAAGTTATTAAGGCATTAATAATCCCTCAATATAAATATCTCTCACTTATTTAAA
[1]
  cleaved RNA product abundance: 0.0847
[3]
  cleaved RNA product abundance: 0.108

## CGACATGTCCCGCTTCTTTCATTAATACGTTAGCAACTGTTTTGCTATATACATTCACCTTTTAAGAGGAGGAAT
[2]
  cleaved RNA product abundance: 0.695

## ACAGACGAAGGAGCCGCAAAGAAGTTATTAAGGGATGATTAATCCCTCAATAGAAATATCTCTCACTTATTTAAA
[3]
  cleaved RNA product abundance: 0.0935

## CGACATGTCCCGCTTCTTTCATTATTCCTTTAGCAACTGTTTTGCTATATACATTTACCTTTTAAGAGGAGGAAT
[2]
  cleaved RNA product abundance: 1.04

## ACAGACGAAGGAGCCGCAAAGAAGTAATTAAGGGATGAATAATCCCTCAATATAAATTTCTCTCACTTATTTAAA
[3]
  cleaved RNA product abundance: 0.122
